The results in this text go back to publication PMC9253516.

Test [1] has as its target T1, Aurora B (endogenous), Q96GD4.
T1 chain: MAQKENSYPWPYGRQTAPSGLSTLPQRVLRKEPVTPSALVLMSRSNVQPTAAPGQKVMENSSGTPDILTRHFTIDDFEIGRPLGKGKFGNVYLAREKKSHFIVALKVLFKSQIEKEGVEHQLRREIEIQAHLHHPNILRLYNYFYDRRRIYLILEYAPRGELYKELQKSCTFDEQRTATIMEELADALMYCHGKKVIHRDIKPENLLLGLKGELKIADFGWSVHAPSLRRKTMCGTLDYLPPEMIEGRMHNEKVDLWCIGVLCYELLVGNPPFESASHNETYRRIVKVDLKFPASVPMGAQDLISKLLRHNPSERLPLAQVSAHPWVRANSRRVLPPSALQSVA
Description: LacO-LacI tethering assay, immunofluorescence in U-2 OS-LacO Haspin CM cells. The conditions noted are these: chain shown with the change, red bar = mean, read off a plot.

For test [2], the target named is T2, Borealin (endogenous), Q53HL2.
T2 chain: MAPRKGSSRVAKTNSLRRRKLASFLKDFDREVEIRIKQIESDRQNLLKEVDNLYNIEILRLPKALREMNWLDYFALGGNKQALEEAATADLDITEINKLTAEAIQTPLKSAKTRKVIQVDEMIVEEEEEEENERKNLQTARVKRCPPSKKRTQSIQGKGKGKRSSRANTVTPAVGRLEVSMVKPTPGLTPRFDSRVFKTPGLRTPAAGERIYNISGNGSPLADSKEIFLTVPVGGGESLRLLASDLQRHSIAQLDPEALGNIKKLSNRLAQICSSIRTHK
The test is described as above. The conditions noted are these: chain shown with the change, n = 21 (mutant), n = 22 (parent), red bar = mean, read off a plot.

B1: Sgo1_(159–240)-LacI-GFP, Q5FBB7 V188A; S189A; V190A; R191A (protein)
chain: QIPTIPQDTLGVDFDSGEAKSTDNVLPRTAAAASSLKKHCNSICQFDSLDDFETSHLAGKSFEFERVGFLDPLVNMHIPENV
As to B1, the response in test [1] (n = 23 (mutant), n = 10 (parent), parent: est. 1.2) was 0.15 a.u; in test [2] (parent: est. 1.4), 0.25 a.u.

B2: Sgo1_(130–280)-LacI-GFP, Q5FBB7 V188A; S189A; V190A; R191A (protein)
chain: RNLFVKDLPQIPLEETELPGQGESFQIEDQIPTIPQDTLGVDFDSGEAKSTDNVLPRTAAAASSLKKHCNSICQFDSLDDFETSHLAGKSFEFERVGFLDPLVNMHIPENVQHNACQWSKDQVNLSPKLIQPGTFTKTKEDILESKSEQTK
For the molecule B2, the response was found to be 0.1 a.u in test [1] (n = 22 (mutant), n = 20 (parent), parent: est. 0.85) and 0.18 a.u in test [2] (parent: est. 1.2).
